Measured values published in patent publication US20210087298A1.

How the values were obtained:
HER2 [1] = biological target: HER2 (UniProt P04626); assay: apparent Kd, flow cytometry on SKBr3 cells
HER2 [2] = biological target: HER2 (UniProt P04626); assay: apparent Kd, flow cytometry on SKOV3 cells
HER2 [3] = biological target: HER2 (UniProt P04626); assay: apparent Kd, flow cytometry on SKOV3 cells (n = 2)
HER2 [4] = biological target: HER2 (UniProt P04626); assay: apparent Kd, flow cytometry on JIMT-1 cells

Row | Kd (HER2 [1]) [nM] | Kd (HER2 [2]) [nM] | Kd (HER2 [3]) [nM] | Kd (HER2 [4]) [nM] | Substance
1 | 2.6 | 3.3 | 3.5 | 3.9 | trast A158N-MB488: trastuzumab A158N mutant conjugated through Neu5NAz on Fd glycans (antibody)
2 | 2.3 | 3.1 |  | 3.2 | trast K129N-MB488 (antibody)
3 |  | 3.4 | 3.5 |  | trast L189N-MB488: trastuzumab L189N mutant conjugated through Neu5NAz on Fd glycans (antibody)
4 | 1.8 |  |  |  | trast T191N-MB488 (antibody)
